In US20170173107A1 one finds % bound data, which are given here for 2 molecules.

In test [1] the target is plasma proteins of C3-positive serum (C3-depleted serum with 5 µM purified C3 added). As to the kind of experiment: rapid equilibrium dialysis, 10 µM peptide, C3-positive serum (5 µM C3), 37 °C 24 h, UPLC-HDMS. (In equilibrium dialysis free small molecules cross a membrane that holds back macromolecules.)
The target in test [2] is plasma proteins of C3-depleted serum. As to the kind of experiment: rapid equilibrium dialysis, 5 µM peptide, C3-depleted serum, 37 °C 24 h, UPLC-HDMS.
For test [3], the target named is plasma proteins of C3-positive serum (C3-depleted serum with 5 µM purified C3 added). Briefly: rapid equilibrium dialysis, 5 µM peptide, C3-positive serum (5 µM C3), 37 °C 24 h, UPLC-HDMS.
In test [4] the target is plasma proteins of C3-depleted serum. As to the kind of experiment: rapid equilibrium dialysis, 10 µM peptide, C3-depleted serum, 37 °C 24 h, UPLC-HDMS.

Positions of bridges follow the written chain, without caps; N, C: chain ends. Non-standard residues stand in square brackets, D forms with d. ABM2 = diphenyl-cyclohexanol phosphate ester hexanoic acid tag; Trp(1-Me) = Cn1cc(C[C@H](N)C(=O)O)c2ccccc21; NMeI = CC[C@H](C)[C@H](NC)C(=O)O; Sar = CNCC(=O)O

B1: Cp20 (Ac-Ile-[Cys-Val-Trp(Me)-Gln-Asp-Trp-Sar-Ala-His-Arg-Cys]-mIle-NH2) (peptide)
peptide: Ac-ICV[Trp(1-Me)]QDW[Sar]AHRC[NMeI]-NH2
modifications: disulfide 2-12
SMILES: CC[C@H](C)[C@H](NC(C)=O)C(=O)N[C@H]1CSSC[C@@H](C(=O)N(C)[C@H](C(N)=O)[C@@H](C)CC)NC(=O)[C@H](CCCNC(=N)N)NC(=O)[C@H](Cc2c[nH]cn2)NC(=O)[C@H](C)NC(=O)CN(C)C(=O)[C@H](Cc2c[nH]c3ccccc23)NC(=O)[C@H](CC(=O)O)NC(=O)[C@H](CCC(N)=O)NC(=O)[C@H](Cc2cn(C)c3ccccc23)NC(=O)[C@H](C(C)C)NC1=O
As for B1, the % bound in test [1] is 84%; in test [2], 7%; in test [3], above 99%; in test [4], 3%.

B2: ABM2-Cp20 (ABM2-Ile-[Cys-Val-Trp(Me)-Gln-Asp-Trp-Sar-Ala-His-Arg-Cys]-mIle-NH2) (peptide)
peptide: ABM2-ICVWQDW[Sar]AHRC[NMeI]-NH2
modifications: disulfide 2-12; not fully specified (residue 4); printed as ABM2-Ile-[Cys-Val-Trp(Me)-Gln-Asp-Trp-Sar-Ala-His-Arg-Cys]-mIle-NH2
For B2, the % bound in test [1], in test [2], in test [3] and in test [4] was above 99% throughout.
